The values below are quoted from earlier work in PMC3463409.

For orientation: pKa means the negative logarithm of the acid dissociation constant.

The target in this data set is Cys30 (UniProt position 49, FFSFFCPHCYQ). Particulars: not stated (a thiol pKa implies the reduced form of the active-site cysteine).

As for “Thiol:disulfide interchange protein DsbA (Escherichia coli)”, the pKa is listed as 3.5.
